Test results from paper PMC7737734.

Columns and labels:
[1] = target: ZIKV soluble envelope protein E, covalently stabilized dimer (sE-cvD), A264C, V5-tagged (Zika virus (strain ArD158095)); assay: non-reducing SDS-PAGE of a disulfide-linked dimer; purified sE proteins on 10% SDS-PAGE under reducing (DTT) and nonreducing conditions, gel stained with InstantBlue
[2] = target: ZIKV full-length envelope protein E with A264C, as displayed on virus-like particles (VLP-cvD) (Zika virus (strain PE243)); assay: non-reducing SDS-PAGE and Western blot of a disulfide-linked dimer; purified VLPs on SDS-PAGE under reducing (DTT) or nonreducing conditions, E detected with the monoclonal antibody DIII-1B

Substance	stoichiometry N [1]	stoichiometry N [2]
ZIKV soluble envelope protein E, covalently stabilized dimer (sE-cvD), A264C, V5-tagged (domain or fragment)	2	–
ZIKV full-length envelope protein E with A264C, as displayed on virus-like particles (VLP-cvD) (natural protein)	–	2
